According to US20180057579A1 (Pfizer, published 2018):

T1: CD32b (Fc gamma receptor) (UniProt P31994 43-217)
T1 sequence (looked up): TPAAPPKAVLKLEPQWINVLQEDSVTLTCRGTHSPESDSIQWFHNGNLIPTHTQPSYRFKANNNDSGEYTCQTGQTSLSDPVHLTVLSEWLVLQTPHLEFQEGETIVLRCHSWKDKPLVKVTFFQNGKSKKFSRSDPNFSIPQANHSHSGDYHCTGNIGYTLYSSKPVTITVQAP

T2: CD32a-131H (Fc gamma receptor) (UniProt P12318 34-217)
T2 construct: The 131H allotype is as printed
T2 sequence (looked up): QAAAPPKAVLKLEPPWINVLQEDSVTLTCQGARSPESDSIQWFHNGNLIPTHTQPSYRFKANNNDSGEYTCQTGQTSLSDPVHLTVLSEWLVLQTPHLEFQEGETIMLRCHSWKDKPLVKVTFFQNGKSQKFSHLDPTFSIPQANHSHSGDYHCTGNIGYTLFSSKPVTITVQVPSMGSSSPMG


Assays:
[1] = target: T3, Growth and differentiation factor-8 (GDF-8), mature human (human, UniProt O14793 267-375, conjugated to biotin in the ActRIIB ELISA and in the Fc gamma receptor SPR (site not stated)); experiment: competition ELISA: antibody inhibits biotin-GDF-8 (10 ng/ml) binding to coated ActRIIB-Fc
T3 construct: also called myostatin; human GDF-8

[2] = target: T3, Growth and differentiation factor-8 …; experiment: SPR (BIACORE 3000), antibody captured with anti-mouse IgG, GDF-8 flowed, 1:1 Langmuir fit
[3] = target: T3, Growth and differentiation factor-8 …; experiment: cell-based or functional assay
[4] = target: T3, Growth and differentiation factor-8 …; experiment: competition ELISA (GDF-8 / ActRIIB-Fc)
[5] = target: T3, Growth and differentiation factor-8 …; experiment: SPR
[6] = target: T3, Growth and differentiation factor-8 …; experiment: cell-based or functional assay; remark: listed apart in the source
[7] = target: T3, Growth and differentiation factor-8 …; experiment: competition ELISA
[8] = target: T3, Growth and differentiation factor-8 …; experiment: SPR (BIACORE 3000), captured antibody, GDF-8 flowed, 1:1 Langmuir fit
[9] = target: T1, CD32b (Fc gamma receptor); experiment: SPR (Biacore T200), OGD1.0.0 captured on biotin-GDF-8 on an SA chip, receptor flowed
CD64 (Fc gamma receptor) = CD64 (Fc gamma receptor) (UniProt P12314 16-288, limits assumed); experiment: SPR (Biacore T200), OGD1.0.0 captured on biotin-GDF-8 on an SA chip, receptor flowed, single-cycle kinetics
[10] = target: T2, CD32a-131H (Fc gamma receptor); experiment: as above
[11] = target: T4, CD16a-158V (Fc gamma receptor) (UniProt P08637 17-208); experiment: as above
T4 construct: The 158V allotype is as printed

[12] = target: T3, Growth and differentiation factor-8 …; experiment: SPR (BIACORE 3000), antibody captured on protein A, GDF-8 flowed, 1:1 Langmuir fit

Row | Binder | IC50 [1] [nM] | CAGA EC50 [3] [nM] | IC50 by ELISA compared to OGD1.0.0 [4] | Kd [5] [nM] | IC50 by reporter gene assay compared to OGD1.0.0 [6] | also measured
1 | Murine anti-GDF-8 monoclonal antibody (parental murine antibody) (antibody, V domains shown, also called mouse anti-GDF-8 antibody) VH: EVQLVESGGGLVKPGGSLKLSCAASGFTFSSYAMSWVRQTPEKRLEWVATISSGGSYTSYPDSVKGRFTISRDNAKNTLYLQMSSLRSEDTAMYYCARQDYAMNYWGQGTSVTVSS VL: DIEMTQSHKFMSTSVGDRVSITCKASQDVSTAVAWYQQKPGQSPKLLLYSASYRYTGVPDRFTGSGSGTDFTFTISSVQAEDLAVYYCQQHYSTPWTFGGGTKLEIK | 0.165 | 33.5 | – | – | – | Kd [2]: 0.0218 nM
2 | OGD1.0.2 humanized anti-GDF-8 antibody (VH0 and VL2) (antibody, V domains shown, Intact antibody produced in COS-1 cells) VH: EVQLLESGGGLVQPGGSLRLSCAASGFTFSSYAMSWVRQAPGKGLEWVSTISSGGSYTSYPDSVKGRFTISRDNSKNTLYLQMNSLRAEDTAVYYCAKQDYAMNYWGQGTLVTVSS VL: DIQMTQSPSSLSASVGDRVTITCKASQDVSTAVAWYQQKPGKAPKLLIYAASSLQSGVPSRFSGSGSGTDFTLTISSLQPEDFATYYCQQHYSTPWTFGGGTKVEIK | – | – | 0.91 fold of OGD1.0.0 | 0.00146 | 1.03 fold of OGD1.0.0 | –
3 | OGD1.0.3 humanized anti-GDF-8 antibody (VH0 and VL3) (antibody, V domains shown) VH: EVQLLESGGGLVQPGGSLRLSCAASGFTFSSYAMSWVRQAPGKGLEWVSTISSGGSYTSYPDSVKGRFTISRDNSKNTLYLQMNSLRAEDTAVYYCAKQDYAMNYWGQGTLVTVSS VL: DIQMTQSPSSLSASVGDRVTITCRASQSISTALNWYQQKPGKAPKLLIYSASSLQSGVPSRFSGSGSGTDFTLTISSLQPEDFATYYCQQSYSTPWTFGGGTKVEIK | – | – | 0.96 fold of OGD1.0.0 | 0.00317 | 0.85 fold of OGD1.0.0 | –
4 | OGD1.0.4 humanized anti-GDF-8 antibody (VH0 and VL4) (antibody, V domains shown, VL4 is VL3 with S50A) VH: EVQLLESGGGLVQPGGSLRLSCAASGFTFSSYAMSWVRQAPGKGLEWVSTISSGGSYTSYPDSVKGRFTISRDNSKNTLYLQMNSLRAEDTAVYYCAKQDYAMNYWGQGTLVTVSS VL: not shown | – | – | 0.61 fold of OGD1.0.0 | 0.00246 | 1.54 fold of OGD1.0.0 | –
5 | OGD1.0.5 humanized anti-GDF-8 antibody (VH0 and VL5) (antibody, V domains shown, VL5 is VL3 with W96L) VH: EVQLLESGGGLVQPGGSLRLSCAASGFTFSSYAMSWVRQAPGKGLEWVSTISSGGSYTSYPDSVKGRFTISRDNSKNTLYLQMNSLRAEDTAVYYCAKQDYAMNYWGQGTLVTVSS VL: DIQMTQSPSSLSASVGDRVTITCRASQSISTALNWYQQKPGKAPKLLIYSASSLQSGVPSRFSGSGSGTDFTLTISSLQPEDFATYYCQQSYSTPLTFGGGTKVEIK | – | – | 5.94 fold of OGD1.0.0 | 0.057 | – | –
6 | OGD1.3.0 humanized anti-GDF-8 antibody (VH3 and VL0) (antibody, V domains shown) VH: EVQLLESGGGLVQPGGSLRLSCAASGFTFSSYAMSWVRQAPGKGLEWVSAISSSGGYTYYADSVKGRFTISRDNSKNTLYLQMNSLRAEDTAVYYCAKQDYAMNYWGQGTLVTVSS VL: DIQMTQSPSSLSASVGDRVTITCKASQDVSTAVAWYQQKPGKAPKLLIYSASYRYTGVPSRFSGSGSGTDFTLTISSLQPEDFATYYCQQHYSTPWTFGGGTKVEIK | – | – | – | – | – | binding result [7]: binds
7 | OGD1.4.0 humanized anti-GDF-8 antibody (VH4 and VL0) (antibody, V domains shown, VH4 carries M99F and N101D in CDR3) VH: EVQLLESGGGLVQPGGSLRLSCAASGFTFSSYAMSWVRQAPGKGLEWVSTISSGGSYTSYPDSVKGRFTISRDNSKNTLYLQMNSLRAEDTAVYYCAKQDYAFDYWGQGTLVTVSS VL: DIQMTQSPSSLSASVGDRVTITCKASQDVSTAVAWYQQKPGKAPKLLIYSASYRYTGVPSRFSGSGSGTDFTLTISSLQPEDFATYYCQQHYSTPWTFGGGTKVEIK | – | – | 1.71 fold of OGD1.0.0 | 0.284 | 7.5 fold of OGD1.0.0 | –
8 | Chimeric mouse-human anti-GDF-8 antibody (murine variable domains and human constant domains) (antibody, human IgG1, V domains shown, also called Chimeric antibody) VH: EVQLVESGGGLVKPGGSLKLSCAASGFTFSSYAMSWVRQTPEKRLEWVATISSGGSYTSYPDSVKGRFTISRDNAKNTLYLQMSSLRSEDTAMYYCARQDYAMNYWGQGTSVTVSS VL: DIEMTQSHKFMSTSVGDRVSITCKASQDVSTAVAWYQQKPGQSPKLLLYSASYRYTGVPDRFTGSGSGTDFTFTISSVQAEDLAVYYCQQHYSTPWTFGGGTKLEIK | 0.165 | 24.2 | – | – | – | Kd [8]: 0.00299 nM
9 | OGD1.0.0 humanized anti-GDF-8 antibody (VH0 and VL0) (antibody, human IgG1, kappa, also called OGD1.0.0 antibody) heavy: EVQLLESGGGLVQPGGSLRLSCAASGFTFSSYAMSWVRQAPGKGLEWVSTISSGGSYTSYPDSVKGRFTISRDNSKNTLYLQMNSLRAEDTAVYYCAKQDYAMNYWGQGTLVTVSSASTKGPSVFPLAPSSKSTSGGTAALGCLVKDYFPEPVTVSWNSGALTSGVHTFPAVLQSSGLYSLSSVVTVPSSSLGTQTYICNVNHKPSNTKVDKKVEPKSCDKTHTCPPCPAPEAAGAPSVFLFPPKPKDTLMISRTPEVTCVVVDVSHEDPEVKFNWYVDGVEVHNAKTKPREEQYNSTYRVVSVLTVLHQDWLNGKEYKCKVSNKALPAPIEKTISKAKGQPREPQVYTLPPSREEMTKNQVSLTCLVKGFYPSDIAVEWESNGQPENNYKTTPPVLDSDGSFFLYSKLTVDKSRWQQGNVFSCSVMHEALHNHYTQKSLSLSPGK light: DIQMTQSPSSLSASVGDRVTITCKASQDVSTAVAWYQQKPGKAPKLLIYSASYRYTGVPSRFSGSGSGTDFTLTISSLQPEDFATYYCQQHYSTPWTFGGGTKVEIKRTVAAPSVFIFPPSDEQLKSGTASVVCLLNNFYPREAKVQWKVDNALQSGNSQESVTEQDSKDSTYSLSSTLTLSKADYEKHKVYACEVTHQGLSSPVTKSFNRGEC | 0.14 | 27.3 | 1 fold of OGD1.0.0 | 0.00259 | 1 fold of OGD1.0.0 | Kd [9]: > 21000 nM; binding result (CD64 (Fc gamma receptor)): no binding (tested: 0-270 nM); binding result [10]: no binding (tested: 0-21 µM); binding result [11]: no binding (tested: 0-21 µM); Kd [12]: 0.00259 nM
10 | OGD1.1.1 humanized anti-GDF-8 antibody (VH1 and VL1) (antibody, human IgG1, kappa) heavy: EVQLLESGGGLVQPGGSLRLSCAASGFTFSSYAMSWVRQAPGKGLEWVSTISSGGSYTSYPDSVKGRFTISRDNSKNTLYLQMNSLRAEDTAVYYCAKQDYAMNYWGQGTMVTVSSASTKGPSVFPLAPSSKSTSGGTAALGCLVKDYFPEPVTVSWNSGALTSGVHTFPAVLQSSGLYSLSSVVTVPSSSLGTQTYICNVNHKPSNTKVDKKVEPKSCDKTHTCPPCPAPEAAGAPSVFLFPPKPKDTLMISRTPEVTCVVVDVSHEDPEVKFNWYVDGVEVHNAKTKPREEQYNSTYRVVSVLTVLHQDWLNGKEYKCKVSNKALPAPIEKTISKAKGQPREPQVYTLPPSREEMTKNQVSLTCLVKGFYPSDIAVEWESNGQPENNYKTTPPVLDSDGSFFLYSKLTVDKSRWQQGNVFSCSVMHEALHNHYTQKSLSLSPGK light: DIQMTQSPSSLSASVGDRVTITCKASQDVSTAVAWYQQKPGKAPKLLIYSASYRYTGVPSRFSGSGSGTDFTLTISSLQPEDFATYYCQQHYSTPWTFGQGTKVEIKRTVAAPSVFIFPPSDEQLKSGTASVVCLLNNFYPREAKVQWKVDNALQSGNSQESVTEQDSKDSTYSLSSTLTLSKADYEKHKVYACEVTHQGLSSPVTKSFNRGEC | 0.14 | 26 | – | – | – | Kd [12]: 0.00725 nM
